Reference: US20060286615A1

Molecular target: monoclonal anti-H2a antibody of hybridoma clone B9 (ECACC 04030801)
Test: competitive ELISA, antibody preincubated overnight with free specific peptide, then plate-bound peptide

B1: H2 carboxyterminal peptide (SEQ ID NO:1, …) (peptide)
peptide: CEKRRNATGEVA
% inhibition of the reaction: 81%
